The experiment addresses extracellular region of human V158 FcγRIIIa fused with glutathione S-Transferase (GST) (human;, UniProt P08637 17-208). Put plainly: competition AlphaScreen.

Sequence of extracellular region of human V158 FcγRIIIa fused with glutathione S-Transferase (GST) (P08637 17-208 F176V): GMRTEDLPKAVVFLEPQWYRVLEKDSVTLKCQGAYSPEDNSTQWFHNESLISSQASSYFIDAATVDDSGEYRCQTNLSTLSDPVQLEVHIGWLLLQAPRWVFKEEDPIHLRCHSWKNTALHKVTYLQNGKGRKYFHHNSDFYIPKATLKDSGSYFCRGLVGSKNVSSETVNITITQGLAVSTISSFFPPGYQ

B1: H3.69_V2/L3.71 AC10 IgG(1/2) ELLGG antibody (XmAb2513) (antibody)
heavy: QVQLVQSGAEVKKPGASVKVSCKVSGYTFTDYYITWVRQAPGQALEWMGWIYPGSGNTKYSQKFQGRFVFSVDTSASTAYLQISSLKAEDTAVYYCANYGNYWFAYWGQGTLVTVSSASTKGPSVFPLAPSSKSTSGGTAALGCLVKDYFPEPVTVSWNSGALTSGVHTFPAVLQSSGLYSLSSVVTVPSSSLGTQTYICNVNHKPSNTKVDKKVEPKSCDKTHTCPPCPAPELLGGPDVFLFPPKPKDTLMISRTPEVTCVVVDVSHEDPEVQFNWYVDGVEVHNAKTKPREEQFNSTFRVVSVLTVVHQDWLNGKEYKCKVSNKALPAPEEKTISKTKGQPREPQVYTLPPSREEMTKNQVSLTCLVKGFYPSDIAVEWESNGQPENNYKTTPPMLDSDGSFFLYSKLTVDKSRWQQGNVFSCSVMHEALHNHYTQKSLSLSPGK
light: EIVLTQSPDSLAVSLGERATINCKASQSVDFDGDSYLNWYQQKPGQPPKVLIYAASTLQSGVPSRFSGSGSGTDFTLTINSLEAEDAATYYCQQSNEDPWTFGGGTKVEIKRTVAAPSVFIFPPSDEQLKSGTASVVCLLNNFYPREAKVQWKVDNALQSGNSQESVTEQDSKDSTYSLSSTLTLSKADYEKHKVYACEVTHQGLSSPVTKSFNRGEC
In turn, B1 had an IC50 of 38 nM.

Values taken from patent publication US20080267976A1 (published 2008).
